Assay results from patent US20130260436A1, “Methods of Identifying and Characterizing Natural Product Gene Clusters” (Victoria LInk Limited, priority 2010, published 2013).

B1: Sfp: PPTase of B. subtilis subsp. spizizenii ATCC6633 (protein, UniProt P39135 1-224, looked up)
4'-phosphopantetheinyl …: MKIYGIYMDRPLSQEENERFMSFISPEKREKCRRFYHKEDAHRTLLGDVLVRSVISRQYQLDKSDIRFSTQEYGKPCIPDLPDAHFNISHSGRWVICAFDSQPIGIDIEKTKPISLEIAKRFFSKTEYSDLLAKDKDEQTDYFYHLWSMKESFIKQEGKGLSLPLDSFSVRLHQDGQVSIELPDSHSPCYIKTYEVDPGYKMAVCAAHPDFPEDITMVSYEELL
B2: BpsA: single module NRPS protein of S. lavendulae ATCC11924 that converts L-glutamine into indigoidine; SEQ ID NO: 3 (protein, listed as Streptomyces lavendulae)
chain: MTLQETSVLEPTLQGTTTLPGLLAQRVAEHPEAIAVAYRDDKLTFRELASRSAALADYLEHLGVSADDCVGLFVEPSIDLMVGAWGILNAGAAYLPLSPEYPEDRLRYMIENSETKIILAQQRLVSRLRELAPKDVTIVTLRESEAFVRPEGTEAPAARSARPDTLAYVIYTSGSTGKPKGVMIEHRSIVNQLGWLRETYAIDRSKVILQKTPMSFDAAQWEILSPANGATVVMGAPGVYADPEGLIETIVKHNVTTLQCVPTLLQGLIDTEKFPECVSLQQIFSGGEALSRLLAIQTTQEMPGRALINVYGPTETTINSSSFPVDPADLDEGPQSISIGSPVHGTTYHILDKETLKPVGVGEIGELYIGGIQLARGYLHRDDLTAERFLEIELEEGAEPVRLYKTGDLGQWNNDGTVQFAGRADNQVKLRGYRVELDEISLAIENHDWVRNAAVIVKNDGRTGFQNLIACIELSEKEAALMDQGNHGSHHASKKSKLQVKAQLSNPGLRDDAELAARPAFDLEGAEPTPEQRARVFARKTYRFYEGGAVTQADLLGLLGATVTAGYSRKAADLAPAELGQILRWFGQYISEERLLPKYGYASPGALYATQMYFELEGVGGLKPGYYYYQPVRHQLVLISEREATGKATAQIHFIGKKSGIEPVYKNNILEVLEIETGHMVGLFEQILPAYGLDIHDRAYEPAVKDLLDVADEDYYLGTFELVPHAGARDDQAEVYVQTHGGKVAGLPEGQYRYENGELTRFSDDIVLKKHVIAINQSVYQAASFGISVYSRAEEEWLKYITLGKKLQHLMMNGLNLGFMSSGYSSKTGNPLPASRRMDAVLGANGVDSAPMYFFVGGRISDEQIGHEGMREDSVHMRGPAELIRDDLVSFLPDYMIPNRVVVFDRLPLSANGKIDVKALAASDQVNAELVERPFVAPRTETEKEIAAVWEKALRRENASVQDDFFESGGNSLIAVGLVRELNARLGVSLPLQSVLESPTIEKLARRLEREVAQESSRFVRLHAETGKARPVICWPGLGGYPMNLRSLAGEIGLGRSFYGVQSYGINEGETPYETITEMAKKDIEALKEIQPAGPYTLWGYSFGARVAFETAYQLEQAGEKVDNLFLIAPGSPKVRAENGKVWGREASFANRGYTTILFSVFTGTISGPDLDRCLETVTDEASFAEFISELKGIDVDLARRIISVVGQTYEFEYSFHELAERTLQAPISIFKAVGDDYSFLENSSGYSAEPPTVIDLDADHYSLLREDIGELVKHIRYLLGE

How the values were obtained:
[1] = BpsA coupled assay for PPTase kinetic parameters, CoA as variable substrate; type: biochemical; conditions: BpsA fixed at 0.83 μM
Text: Having established a linear relationship between concentration of holo-BpsA and the apparent rate of indigoidine synthesis in aqueous solution, we next wanted to test whether it was possible to evaluate PPTase activity by using acceleration of the rate of indigoidine synthesis as a measure of the rate of 4′-PP attachment to apo-BpsA. Replicate solutions containing PPTase and all of the substrates necessary for both phosphopantetheinylation and indigoidine synthesis were established using a twofold serial dilution series of CoA (0.024-50 μM) in ninety six well plates. Reactions were initiated by addition of 0.83 μM BpsA each well of a dilution series, and absorbance at 590 nm was measured continuously. Under these conditions, the pigment synthesis reaction undergoes an initial acceleration phase as apo-BpsA is converted to holo-BpsA by the PPTase. […]
A590 values were then recorded as previously described. […] A590 values were then recorded as previously described. For derivation of PPTase velocity values, the slope between every 2-8 data points was measured across the entire data range with the resulting values forming a new data set (BpsA velocity). The slope between every 2-8 points in the BpsA velocity data set was then determined using the slope function of Microsoft Excel and the maximum value from the resulting data set for each reaction taken as a measure of PPTase velocity. […]

[2] = system: BpsA; experiment: Qualitative PPTase activity in vivo by co-expression with a BpsA reporter in E. coli; type: cell-based, S. lavendulae ATCC 11924; conditions: E. coli BL21(DE3), auto-induction agar plates
Experimental: Single colonies of E. coli co-expressing BpsA and an activating PPTase were inoculated onto pigment production agar plate using a sterile pipette tip and incubated for 16 hours at 37° C. Protein expression was then induced by IPTG addition as described in Section 4.9.2 and the plate incubated for a further 24 h at room temperature (18-25° C.).
We constructed plasmids that allowed IPTG regulated co-expression of a candidate PPTase and BpsA in E. coli BL21(DE3). To enable IPTG regulated co-expression the BpsA gene of S. lavendulae ATCC 11924 was cloned into pCDFDUET-1 (Novagen) and three candidate PPTases into the (origin of replication compatible) vector pET28a(+). […] In contrast, if IPTG was absent from the medium viable co-transformed cells were recovered with good efficiency (not shown). […] In order to circumvent this problem we employed auto-induction agar plates, prepared by addition of 1.5% agar to Studier ZYP-5052 auto-induction medium (Studier 2005). Use of auto-induction agar plates allowed for both rapid growth and efficient induction of pigment production following extended incubation at room temperature.

[3] = target: T1, BpsA (Streptomyces lavendulae, UniProt Q1MWN4); experiment: BpsA coupled assay for PPTase kinetic parameters, BpsA as variable substrate; type: biochemical, S. lavendulae ATCC 11924; conditions: CoA fixed at 25 μM
T1 construct: 6His; made in house; host or cells: E. coli
Text: Having established a linear relationship between concentration of holo-BpsA and the apparent rate of indigoidine synthesis in aqueous solution, we next wanted to test whether it was possible to evaluate PPTase activity by using acceleration of the rate of indigoidine synthesis as a measure of the rate of 4′-PP attachment to apo-BpsA. […] Under these conditions, the pigment synthesis reaction undergoes an initial acceleration phase as apo-BpsA is converted to holo-BpsA by the PPTase. […]
A590 values were then recorded as previously described. […] A590 values were then recorded as previously described. For derivation of PPTase velocity values, the slope between every 2-8 data points was measured across the entire data range with the resulting values forming a new data set (BpsA velocity). The slope between every 2-8 points in the BpsA velocity data set was then determined using the slope function of Microsoft Excel and the maximum value from the resulting data set for each reaction taken as a measure of PPTase velocity. […] For fast reactions smaller increments could be used, however for slow reactions noise from plate reader noise became a significant factor in point to point variation and created artificial fluctuations in measured slopes if too few points were used in slope determination. […]

[4] = BpsA indigoidine synthesis kinetics with respect to ATP (values used in PPTase unit conversion); type: biochemical
Text: The raw data input into SigmaPlot for derivation of kinetic parameters for the PPTases PcpS and PP1183 was maximum change in indigoidine (ind) synthesis reaction rate (change in gradient per second) vs. concentration of CoA present in the reaction. The Vmax values given by SigmaPlot therefore had the units “Change in gradient per second” The assumptions made and calculations used to convert this standard enzyme kinetics units are given below. […] As such the assumption can be made that reaction rate for this enzyme is directly proportional to the concentration of active enzyme according to the equation:
For the reactions used in derivation of kinetic parameters of PPTases, [BpsA]=[E]=1.64 uM. [S]=[ATP]=1 mM.

[5] = BpsA indigoidine synthesis kinetics, L-Gln as variable substrate; type: biochemical
Experimental: Analysis of BpsA reaction rate over a replicate two fold serial dilution series (0.78 μM-16 mM) of L-gln was conducted at both pH 7.8 (sodium phosphate) and 8.0 (Tris-Cl). […] As such the ΔA590 was expected to be directly proportional to the concentration of holo-BpsA present in a reaction. This assumption was experimentally verified by monitoring reaction velocity at ten different concentrations of holo-BpsA (360 nM-1.14 μM) at constant L-gln/ATP concentrations; as shown in FIG. 6C the relationship between enzyme concentration and velocity is linear within this range (R^2=0.989). Owing to the lack of an extinction co-efficient for indigoidine in water, coupled with formation of insoluble precipitate, we were unable to derive a kcat value for BpsA. We were however able to discern a reproducible maximum velocities which are expressed with the units ΔA590/s. These parameters were subsequently employed for the derivation of PPTase kinetics as outlined in section 4.11.
Pre-activation mix to bring about conversion of apo to holo BpsA contained 3.4 μM apo-BpsA, 0.25 μM PcpS, 10 mM MgCl2, 100 μM CoA and 50 mM buffer (sodium phosphate buffer pH 7.8 or Tris-Cl pH 8.0) and was incubated for 20 min at 30° C.
A590 measurements were then taken every 6-10 s for ten minutes using an envision EnSpire® microplate reader. The resulting data was visualized and velocities derived using the Slope function of Microsoft Excel®. Kinetic parameters were derived from velocity values using Graphpad Prism®. For examination of the relationship between BpsA concentration and reaction velocity, a triplicate two fold serial dilution series of pre-activated BpsA was established in a 96 wp in a final volume of 50 μL, 100 μl reaction mix without L-gln or ATP was then added to each well. […] A590 values were then recorded and data analysed as previously described.

| Molecule | Km [1] [µM] | kcat [1] [s⁻¹] | Indigoidine production on co-expression with BpsA [2] | Km [3] [µM] | kcat [3] [s⁻¹] | Km ([4]; ATP as substrate) [µM] | Kcat (BpsA) ([4]; value used for unit conversion of PPTase kinetics) [s⁻¹] | Km ([5]; NaPh pH 7.8, ATP 2.5 mM) [µM] | Vmax ([5]; NaPh pH 7.8, ATP 2.5 mM) | Km ([5]; Tris-Cl pH 8.0, ATP 2.5 mM) [µM] | Vmax ([5]; Tris-Cl pH 8.0, ATP 2.5 mM) |
| --- | --- | --- | --- | --- | --- | --- | --- | --- | --- | --- | --- |
| B1 | 0.62 | 0.00213 ± 6.7e-05 | substantial production of indigoidine | 3.3 | 0.0357 ± 0.00067 | – | – | – | – | – | – |
| B2 | – | – | – | – | – | 11100 | 4.0223 | 2430 | 1.8 +/− 0.03 (ΔA590 · S^−1 · μM^−1) × 10^−2 | 3330 | 6.5 +/− 0.1 (ΔA590 · S^−1 · μM^−1) × 10^−2 |
